B1: library; numbered along this chain (parent)
chain: MRKPRAAVGSGHRKQAASQEGRQKHAKNNSQAKPSACDGLARQPEEVVLQASVSSYHLFRDVAEVTAFRGSLLSWYDQEKRDLPWRRRAEDEMDLDRRAYAVWVSEVMLQQTQVATVINYYTGWMQKWPTLQDLASASLEEVNQLWAGLGYYSRGRRLQEGARKVVEELGGHMPRTAETLQQLLPGVGRYTAGAIASIAFGQATGVVDGNVARVLCRVRAIGADPSSTLVSQQLWGLAQQLVDPARPGDFNQAAMELGATVCTPQRPLCSQCPVESLCRARQRVEQEQLLASGSLSGSPDVEECAPNTGQCHLCLPPSEPWDQTLGVVNFPRKASRKPPREESSATCVLEQPGALGAQILLVQRPNSGLLAGLWEFPSVTWEPSEQLQRKALLQELQRWAGPLPATHLRHLGEVVHTFSHIKLTYQVYGLALEGQTPVTTVPPGARWLTQEEFHTAAVSTAMKKVFRVYQGQQPGTCMGSKRSQVSSPCSRKKPRMGQQVLDNFFRSHISTDAHSLNSAAQ

Variants of: B1
Test: 8OG:A repair function score (normalized; synonymous = 0, nonsense = -1) (normalized log-likelihood score); higher = more repair activity (WT-like)
Settings: with 8OG:A DNA repair reporter (GFP) in HEK-293 MUTYH KO cells
Outline: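 GFP+ (repair) and GFP− bins of viable mCherry+ cells were collected at 72 h from MUTYH knockout HEK-293 cells bearing lentiviral MUTYH cDNA NNN codon-scan libraries in 10 pg/ml doxycycline, co-transfected with an 8OG:A GFP repair reporter and mCherry. Tile amplicons were sequenced, and per-tile Rosace fitness scores were normalized to a repair function score anchored on synonymous and nonsense distributions. Synonymous medians were set to 0 and nonsense to -1, with variants under 300 counts per million at the start removed.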
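Note: cells sorted at 72 h after reporter transfection.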

In order of rising “8OG:A repair function score” value:
1. MRKPRAAVGSGHRKQAASQEGRQKHAKNNSQAKPSACDGLARQPEEVVLQASVSSYHLFRDVAEVTAFRGSLLSWYDQEKRDLPWRRRAEDEMDLDRRAYAVWVSEVMLQQTQVATVINYYTGWMQKWPTLQDLASASLEEVNQLWAGLGYYSRGRRLQEGARKVVEELGGHMPRTAETLQQLLPGVGRYTAGAIASIAFGQATGVVDGNVARVLCRVRAIGADPSSTLVSQQLWGLAQQLVDPARPGDFNQAAMELGATVCTPQRPLCSQCPVESLCRARQRVEQEQLLASGSLSGSPDVEECAPNTGQCHLCLPPSEPWDQTLGVVNFPRKASRKPPREESSATCVLEQPGALGAQILLVQRPNSGLLAGLWEFPSVTWEPSEQLQRKALLQELQRWAGPLPATHLRHLGEVVHTFSHIKLTYQVYGLALEGQTPVTTVPPGARWLTQEEFHTAAVSTAMKKVFRVYQGQQPGTCMGSKRSQVSSPCSRKKPRMGQQVLDNFFRSHISTDAHSRNSAAQ [L516R]  -0.0194
2. MRKPRAAVGSGHRKQAASQEGRQKHAKNNSQAKPSACDGLARQPEEVVLQASVSSYHLFRDVAEVTAFRGSLLSWYDQEKRDLPWRRRAEDEMDLDRRAYAVWVSEVMLQQTQVATVINYYTGWMQKWPTLQDLASASLEEVNQLWAGLGYYSRGRRLQEGARKVVEELGGHMPRTAETLQQLLPGVGRYTAGAIASIAFGQATGVVDGNVARVLCRVRAIGADPSSTLVSQQLWGLAQQLVDPARPGDFNQAAMELGATVCTPQRPLCSQCPVESLCRARQRVEQEQLLASGSLSGSPDVEECAPNTGQCHLCLPPSEPWDQTLGVVNFPRKASRKPPREESSATCVLEQPGALGAQILLVQRPNSGLLAGLWEFPSVTWEPSEQLQRKALLQELQRWAGPLPATHLRHLGEVVHTFSHIKLTYQVYGLALEGQTPVTTVPPGARWLTQEEFHTAAVSTAMKKVFRVYQGQQPGTCMGSKRSQVSSPCSRKKPRMGQQVLDNFFRSHISTDAHSPNSAAQ [L516P]  0.00373
3. MRKPRAAVGSGHRKQAASQEGRQKHAKNNSQAKPSACDGLARQPEEVVLQASVSSYHLFRDVAEVTAFRGSLLSWYDQEKRDLPWRRRAEDEMDLDRRAYAVWVSEVMLQQTQVATVINYYTGWMQKWPTLQDLASASLEEVNQLWAGLGYYSRGRRLQEGARKVVEELGGHMPRTAETLQQLLPGVGRYTAGAIASIAFGQATGVVDGNVARVLCRVRAIGADPSSTLVSQQLWGLAQQLVDPARPGDFNQAAMELGATVCTPQRPLCSQCPVESLCRARQRVEQEQLLASGSLSGSPDVEECAPNTGQCHLCLPPSEPWDQTLGVVNFPRKASRKPPREESSATCVLEQPGALGAQILLVQRPNSGLLAGLWEFPSVTWEPSEQLQRKALLQELQRWAGPLPATHLRHLGEVVHTFSHIKLTYQVYGLALEGQTPVTTVPPGARWLTQEEFHTAAVSTAMKKVFRVYQGQQPGTCMGSKRSQVSSPCSRKKPRMGQQVLDNFFRSHISTDAHSFNSAAQ [L516F]  0.0067
4. MRKPRAAVGSGHRKQAASQEGRQKHAKNNSQAKPSACDGLARQPEEVVLQASVSSYHLFRDVAEVTAFRGSLLSWYDQEKRDLPWRRRAEDEMDLDRRAYAVWVSEVMLQQTQVATVINYYTGWMQKWPTLQDLASASLEEVNQLWAGLGYYSRGRRLQEGARKVVEELGGHMPRTAETLQQLLPGVGRYTAGAIASIAFGQATGVVDGNVARVLCRVRAIGADPSSTLVSQQLWGLAQQLVDPARPGDFNQAAMELGATVCTPQRPLCSQCPVESLCRARQRVEQEQLLASGSLSGSPDVEECAPNTGQCHLCLPPSEPWDQTLGVVNFPRKASRKPPREESSATCVLEQPGALGAQILLVQRPNSGLLAGLWEFPSVTWEPSEQLQRKALLQELQRWAGPLPATHLRHLGEVVHTFSHIKLTYQVYGLALEGQTPVTTVPPGARWLTQEEFHTAAVSTAMKKVFRVYQGQQPGTCMGSKRSQVSSPCSRKKPRMGQQVLDNFFRSHISTDAHSGNSAAQ [L516G]  0.00843
5. MRKPRAAVGSGHRKQAASQEGRQKHAKNNSQAKPSACDGLARQPEEVVLQASVSSYHLFRDVAEVTAFRGSLLSWYDQEKRDLPWRRRAEDEMDLDRRAYAVWVSEVMLQQTQVATVINYYTGWMQKWPTLQDLASASLEEVNQLWAGLGYYSRGRRLQEGARKVVEELGGHMPRTAETLQQLLPGVGRYTAGAIASIAFGQATGVVDGNVARVLCRVRAIGADPSSTLVSQQLWGLAQQLVDPARPGDFNQAAMELGATVCTPQRPLCSQCPVESLCRARQRVEQEQLLASGSLSGSPDVEECAPNTGQCHLCLPPSEPWDQTLGVVNFPRKASRKPPREESSATCVLEQPGALGAQILLVQRPNSGLLAGLWEFPSVTWEPSEQLQRKALLQELQRWAGPLPATHLRHLGEVVHTFSHIKLTYQVYGLALEGQTPVTTVPPGARWLTQEEFHTAAVSTAMKKVFRVYQGQQPGTCMGSKRSQVSSPCSRKKPRMGQQVLDNFFRSHISTDAHSMNSAAQ [L516M]  0.00845
6. MRKPRAAVGSGHRKQAASQEGRQKHAKNNSQAKPSACDGLARQPEEVVLQASVSSYHLFRDVAEVTAFRGSLLSWYDQEKRDLPWRRRAEDEMDLDRRAYAVWVSEVMLQQTQVATVINYYTGWMQKWPTLQDLASASLEEVNQLWAGLGYYSRGRRLQEGARKVVEELGGHMPRTAETLQQLLPGVGRYTAGAIASIAFGQATGVVDGNVARVLCRVRAIGADPSSTLVSQQLWGLAQQLVDPARPGDFNQAAMELGATVCTPQRPLCSQCPVESLCRARQRVEQEQLLASGSLSGSPDVEECAPNTGQCHLCLPPSEPWDQTLGVVNFPRKASRKPPREESSATCVLEQPGALGAQILLVQRPNSGLLAGLWEFPSVTWEPSEQLQRKALLQELQRWAGPLPATHLRHLGEVVHTFSHIKLTYQVYGLALEGQTPVTTVPPGARWLTQEEFHTAAVSTAMKKVFRVYQGQQPGTCMGSKRSQVSSPCSRKKPRMGQQVLDNFFRSHISTDAHSKNSAAQ [L516K]  0.00908
7. MRKPRAAVGSGHRKQAASQEGRQKHAKNNSQAKPSACDGLARQPEEVVLQASVSSYHLFRDVAEVTAFRGSLLSWYDQEKRDLPWRRRAEDEMDLDRRAYAVWVSEVMLQQTQVATVINYYTGWMQKWPTLQDLASASLEEVNQLWAGLGYYSRGRRLQEGARKVVEELGGHMPRTAETLQQLLPGVGRYTAGAIASIAFGQATGVVDGNVARVLCRVRAIGADPSSTLVSQQLWGLAQQLVDPARPGDFNQAAMELGATVCTPQRPLCSQCPVESLCRARQRVEQEQLLASGSLSGSPDVEECAPNTGQCHLCLPPSEPWDQTLGVVNFPRKASRKPPREESSATCVLEQPGALGAQILLVQRPNSGLLAGLWEFPSVTWEPSEQLQRKALLQELQRWAGPLPATHLRHLGEVVHTFSHIKLTYQVYGLALEGQTPVTTVPPGARWLTQEEFHTAAVSTAMKKVFRVYQGQQPGTCMGSKRSQVSSPCSRKKPRMGQQVLDNFFRSHISTDAHSNNSAAQ [L516N]  0.0104
8. MRKPRAAVGSGHRKQAASQEGRQKHAKNNSQAKPSACDGLARQPEEVVLQASVSSYHLFRDVAEVTAFRGSLLSWYDQEKRDLPWRRRAEDEMDLDRRAYAVWVSEVMLQQTQVATVINYYTGWMQKWPTLQDLASASLEEVNQLWAGLGYYSRGRRLQEGARKVVEELGGHMPRTAETLQQLLPGVGRYTAGAIASIAFGQATGVVDGNVARVLCRVRAIGADPSSTLVSQQLWGLAQQLVDPARPGDFNQAAMELGATVCTPQRPLCSQCPVESLCRARQRVEQEQLLASGSLSGSPDVEECAPNTGQCHLCLPPSEPWDQTLGVVNFPRKASRKPPREESSATCVLEQPGALGAQILLVQRPNSGLLAGLWEFPSVTWEPSEQLQRKALLQELQRWAGPLPATHLRHLGEVVHTFSHIKLTYQVYGLALEGQTPVTTVPPGARWLTQEEFHTAAVSTAMKKVFRVYQGQQPGTCMGSKRSQVSSPCSRKKPRMGQQVLDNFFRSHISTDAHSINSAAQ [L516I]  0.0106
9. MRKPRAAVGSGHRKQAASQEGRQKHAKNNSQAKPSACDGLARQPEEVVLQASVSSYHLFRDVAEVTAFRGSLLSWYDQEKRDLPWRRRAEDEMDLDRRAYAVWVSEVMLQQTQVATVINYYTGWMQKWPTLQDLASASLEEVNQLWAGLGYYSRGRRLQEGARKVVEELGGHMPRTAETLQQLLPGVGRYTAGAIASIAFGQATGVVDGNVARVLCRVRAIGADPSSTLVSQQLWGLAQQLVDPARPGDFNQAAMELGATVCTPQRPLCSQCPVESLCRARQRVEQEQLLASGSLSGSPDVEECAPNTGQCHLCLPPSEPWDQTLGVVNFPRKASRKPPREESSATCVLEQPGALGAQILLVQRPNSGLLAGLWEFPSVTWEPSEQLQRKALLQELQRWAGPLPATHLRHLGEVVHTFSHIKLTYQVYGLALEGQTPVTTVPPGARWLTQEEFHTAAVSTAMKKVFRVYQGQQPGTCMGSKRSQVSSPCSRKKPRMGQQVLDNFFRSHISTDAHSHNSAAQ [L516H]  0.0157
10. MRKPRAAVGSGHRKQAASQEGRQKHAKNNSQAKPSACDGLARQPEEVVLQASVSSYHLFRDVAEVTAFRGSLLSWYDQEKRDLPWRRRAEDEMDLDRRAYAVWVSEVMLQQTQVATVINYYTGWMQKWPTLQDLASASLEEVNQLWAGLGYYSRGRRLQEGARKVVEELGGHMPRTAETLQQLLPGVGRYTAGAIASIAFGQATGVVDGNVARVLCRVRAIGADPSSTLVSQQLWGLAQQLVDPARPGDFNQAAMELGATVCTPQRPLCSQCPVESLCRARQRVEQEQLLASGSLSGSPDVEECAPNTGQCHLCLPPSEPWDQTLGVVNFPRKASRKPPREESSATCVLEQPGALGAQILLVQRPNSGLLAGLWEFPSVTWEPSEQLQRKALLQELQRWAGPLPATHLRHLGEVVHTFSHIKLTYQVYGLALEGQTPVTTVPPGARWLTQEEFHTAAVSTAMKKVFRVYQGQQPGTCMGSKRSQVSSPCSRKKPRMGQQVLDNFFRSHISTDAHSTNSAAQ [L516T]  0.0209
11. MRKPRAAVGSGHRKQAASQEGRQKHAKNNSQAKPSACDGLARQPEEVVLQASVSSYHLFRDVAEVTAFRGSLLSWYDQEKRDLPWRRRAEDEMDLDRRAYAVWVSEVMLQQTQVATVINYYTGWMQKWPTLQDLASASLEEVNQLWAGLGYYSRGRRLQEGARKVVEELGGHMPRTAETLQQLLPGVGRYTAGAIASIAFGQATGVVDGNVARVLCRVRAIGADPSSTLVSQQLWGLAQQLVDPARPGDFNQAAMELGATVCTPQRPLCSQCPVESLCRARQRVEQEQLLASGSLSGSPDVEECAPNTGQCHLCLPPSEPWDQTLGVVNFPRKASRKPPREESSATCVLEQPGALGAQILLVQRPNSGLLAGLWEFPSVTWEPSEQLQRKALLQELQRWAGPLPATHLRHLGEVVHTFSHIKLTYQVYGLALEGQTPVTTVPPGARWLTQEEFHTAAVSTAMKKVFRVYQGQQPGTCMGSKRSQVSSPCSRKKPRMGQQVLDNFFRSHISTDAHSQNSAAQ [L516Q]  0.0225
12. MRKPRAAVGSGHRKQAASQEGRQKHAKNNSQAKPSACDGLARQPEEVVLQASVSSYHLFRDVAEVTAFRGSLLSWYDQEKRDLPWRRRAEDEMDLDRRAYAVWVSEVMLQQTQVATVINYYTGWMQKWPTLQDLASASLEEVNQLWAGLGYYSRGRRLQEGARKVVEELGGHMPRTAETLQQLLPGVGRYTAGAIASIAFGQATGVVDGNVARVLCRVRAIGADPSSTLVSQQLWGLAQQLVDPARPGDFNQAAMELGATVCTPQRPLCSQCPVESLCRARQRVEQEQLLASGSLSGSPDVEECAPNTGQCHLCLPPSEPWDQTLGVVNFPRKASRKPPREESSATCVLEQPGALGAQILLVQRPNSGLLAGLWEFPSVTWEPSEQLQRKALLQELQRWAGPLPATHLRHLGEVVHTFSHIKLTYQVYGLALEGQTPVTTVPPGARWLTQEEFHTAAVSTAMKKVFRVYQGQQPGTCMGSKRSQVSSPCSRKKPRMGQQVLDNFFRSHISTDAHSSNSAAQ [L516S]  0.0241
